According to PMC10123090, “The MksG nuclease is the executing part of the bacterial plasmid defense system MksBEFG” (Nucleic Acids Research, 2023):
Values belong to the molecule of their own block, whether it stands above or below them.

Experiments:
[1] = target: MksE (His6-MksE), kite subunit of the Corynebacterium glutamicum MksBEFG complex (Corynebacterium glutamicum) (UniProt Q8NLY1); experiment: BLI; BLItz, streptavidin biosensors; biotinylated bait immobilised (MksE 25 ug/ml, MksB 50 ug/ml or MksG 100 ug/ml), MksF as analyte 1-5 uM; BLI buffer 10 mM Na2HPO4, 137 mM NaCl, 2.7 mM KCl, 1.8 mM KH2PO4, 10 mM MgCl2, 5% glycerol, pH 7.4; 1:1 binding model
[2] = target: MksB (His10-MksB), condensin-like ATPase subunit of the Corynebacterium glutamicum MksBEFG complex (Corynebacterium glutamicum) (UniProt Q8NLY2); experiment: as above
[3] = target: T1, MksBEF (Corynebacterium glutamicum, UniProt Q8NLY2); experiment: EnzChek phosphate release; type: biochemical; conditions: 2 mM Mg-ATP, 30 °C, with or without 50 ng/ul plasmid DNA (pBHK18)
T1 construct: gene Cgl2804; with Kleisin subunit MksF (MukF/JetA homologue); Kite subunit MksE (MukE/JetB homologue)

[4] = target: the molecule itself; experiment: crystal structure; X-ray, 4.6 A, solved by molecular replacement with AlphaFold2 domain models; crystals in 10% PEG 6K, 30% ethanol, 10 mM sodium acetate
[5] = target: T2, MksF (His6-MksF), kleisin subunit of the Corynebacterium glutamicum MksBEFG complex (Corynebacterium glutamicum, UniProt Q8NLY0 1-495); experiment: BLI; BLItz, streptavidin biosensors; biotinylated bait immobilised (MksE 25 ug/ml, MksB 50 ug/ml or MksG 100 ug/ml), MksF as analyte 1-5 uM; BLI buffer 10 mM Na2HPO4, 137 mM NaCl, 2.7 mM KCl, 1.8 mM KH2PO4, 10 mM MgCl2, 5% glycerol, pH 7.4; 1:1 binding model; conditions: both partners purified
T2 construct: MksF of Corynebacterium glutamicum, gene mksF (cg3106), amplified from genomic DNA and ligated NdeI/BamHI into pET28a (plasmid pMG001); Analyte in the BLI experiments with constants; biotinylated (EZ-Link NHS-PEG4, ratio 3:1) where used as bait; Also purified together with MksE; also called cg3106; source: E. coli BL21 (DE3) pLysS, purified (Ni-NTA, SEC)
T2 sequence (looked up): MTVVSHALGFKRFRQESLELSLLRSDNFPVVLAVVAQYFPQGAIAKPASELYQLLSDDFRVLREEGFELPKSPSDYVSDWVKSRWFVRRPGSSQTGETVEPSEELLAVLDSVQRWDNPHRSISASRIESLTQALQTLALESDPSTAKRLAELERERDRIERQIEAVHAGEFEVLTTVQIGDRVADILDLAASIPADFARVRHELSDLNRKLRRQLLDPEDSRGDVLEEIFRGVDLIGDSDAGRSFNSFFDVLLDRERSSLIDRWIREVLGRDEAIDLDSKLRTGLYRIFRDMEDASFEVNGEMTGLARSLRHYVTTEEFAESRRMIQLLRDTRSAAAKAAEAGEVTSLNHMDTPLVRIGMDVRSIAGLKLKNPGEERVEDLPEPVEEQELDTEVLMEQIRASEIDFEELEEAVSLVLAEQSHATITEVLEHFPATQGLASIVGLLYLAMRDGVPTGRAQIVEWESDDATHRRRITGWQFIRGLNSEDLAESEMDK

Chain of MksB (His10-MksB), condensin-like ATPase subunit of the Corynebacterium glutamicum MksBEFG complex (Corynebacterium glutamicum) (Q8NLY2 entry or part of it, one chain of several): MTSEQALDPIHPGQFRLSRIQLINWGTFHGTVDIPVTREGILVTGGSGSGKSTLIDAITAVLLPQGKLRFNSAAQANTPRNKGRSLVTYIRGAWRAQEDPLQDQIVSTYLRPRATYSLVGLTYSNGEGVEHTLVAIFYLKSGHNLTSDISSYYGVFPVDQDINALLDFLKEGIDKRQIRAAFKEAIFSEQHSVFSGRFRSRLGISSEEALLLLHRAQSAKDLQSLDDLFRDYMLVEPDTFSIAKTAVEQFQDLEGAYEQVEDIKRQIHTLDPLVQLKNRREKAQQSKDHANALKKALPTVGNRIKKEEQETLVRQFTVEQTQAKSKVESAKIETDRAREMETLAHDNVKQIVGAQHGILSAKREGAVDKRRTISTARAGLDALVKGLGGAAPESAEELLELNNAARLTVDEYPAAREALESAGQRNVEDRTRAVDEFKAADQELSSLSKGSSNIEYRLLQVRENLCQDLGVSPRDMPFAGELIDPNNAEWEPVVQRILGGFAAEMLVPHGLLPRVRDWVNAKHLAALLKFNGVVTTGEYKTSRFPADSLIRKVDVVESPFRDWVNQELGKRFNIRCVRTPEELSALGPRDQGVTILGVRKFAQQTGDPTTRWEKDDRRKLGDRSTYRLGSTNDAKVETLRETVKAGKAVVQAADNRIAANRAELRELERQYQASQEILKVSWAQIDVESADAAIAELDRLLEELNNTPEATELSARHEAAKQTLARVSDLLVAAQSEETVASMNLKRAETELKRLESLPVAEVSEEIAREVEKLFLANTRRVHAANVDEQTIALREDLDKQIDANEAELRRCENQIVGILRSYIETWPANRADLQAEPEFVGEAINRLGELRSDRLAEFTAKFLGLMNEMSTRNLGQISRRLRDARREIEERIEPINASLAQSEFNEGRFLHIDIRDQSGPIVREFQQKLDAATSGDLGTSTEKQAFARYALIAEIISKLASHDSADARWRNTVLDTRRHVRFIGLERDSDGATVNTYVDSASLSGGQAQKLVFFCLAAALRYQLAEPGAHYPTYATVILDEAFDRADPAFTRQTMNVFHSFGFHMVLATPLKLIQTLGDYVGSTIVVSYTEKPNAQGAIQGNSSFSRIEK
Chain of MksE (His6-MksE), kite subunit of the Corynebacterium glutamicum MksBEFG complex (Corynebacterium glutamicum) (Q8NLY1 entry or part of it, one chain of several): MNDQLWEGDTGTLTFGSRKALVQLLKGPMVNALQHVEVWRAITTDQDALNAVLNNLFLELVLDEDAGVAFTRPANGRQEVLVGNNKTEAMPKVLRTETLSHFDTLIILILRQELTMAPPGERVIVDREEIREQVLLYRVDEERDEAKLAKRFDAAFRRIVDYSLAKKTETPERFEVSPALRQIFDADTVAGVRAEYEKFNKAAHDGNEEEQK
T1 sequence (Q8NLY2 entry or part of it, one chain of several): as the sequence (Q8NLY2 entry or part of it, one chain of several) above
T1 sequence (Q8NLY1 entry or part of it, one chain of several, further chain): as the sequence (Q8NLY1 entry or part of it, one chain of several) above

- Kd [1]: 2.17 µM
- koff [1]: 0.16 s⁻¹
- kon [1]: 74200 M⁻¹ s⁻¹
- Kd [2]: 4.94 µM
- koff [2]: 0.138 s⁻¹
- kon [2]: 27800 M⁻¹ s⁻¹
Molecule: MksF (His6-MksF), kleisin subunit of the Corynebacterium glutamicum MksBEFG complex (from UniProt Q8NLY0 1-495) (natural protein)

Molecule: Nc1ncnc2c1ncn2[C@@H]1O[C@H](COP(=O)(O)OP(=O)(O)OP(=O)(O)O)[C@@H](O)[C@H]1O [ATP]
- EnzChek phosphate release [3]: kleisin subunit MksF and the kite subunit MksE stimulated the ATPase activity of MksB

B1: MksG, 6xHis-SUMO-tagged construct for crystallization (enzyme, Corynebacterium glutamicum)
chain: MPLFIDDALHRSKKYFHAHLSELLLGEFAGLSLPLHPPTAAKAAADIDATREFIRQWEGRDDVEYAIRNWSPVGLGKTEVPVRLTLNTTEELVVFAQVEDEWSSLHERFSQLSGFTAEVVAKHVSLWRSLSNDDLSKAVLVVDWFLKHPNSGLLKRAVAVEGVHTKWLENHRVLIETLVADKRGEPGRADLGLGDAEARVRLRFHSVDAPAGLTDIEVPLSNLCELQEPQVILMVENLDSFLALPTWPGVTIAWGAGYRAVDIVRGPYFSNGRLLYWGDLDLDGFKILDGVRSHVPHTESVLMNSETVSRWRYLGVADREFKAESFDNLHDFESDALDLLITDGELRIEQERIRLDVAVEEIEKVIRG
notes: MksG of Corynebacterium glutamicum (cg3103), amplified from pMG003 and subcloned into a pET28 derivative with an N-terminal 6xHis-SUMO tag; The methods tell of no cleavage of the 6xHis-SUMO tag before crystallization; also called 6xHis-SUMO-MksG; source: E. coli BL21 C41, purified (Ni-NTA, SEC)
- stoichiometry N [4]: 2

- Kd [5]: 6 µM
- koff [5]: 0.136 s⁻¹
- kon [5]: 22500 M⁻¹ s⁻¹
B2: MksG (His6-MksG), nuclease subunit of the Corynebacterium glutamicum MksBEFG complex (enzyme)
chain: MPLFIDDALHRSKKYFHAHLSELLLGEFAGLSLPLHPPTAAKAAADIDATREFIRQWEGRDDVEYAIRNWSPVGLGKTEVPVRLTLNTTEELVVFAQVEDEWSSLHERFSQLSGFTAEVVAKHVSLWRSLSNDDLSKAVLVVDWFLKHPNSGLLKRAVAVEGVHTKWLENHRVLIETLVADKRGEPGRADLGLGDAEARVRLRFHSVDAPAGLTDIEVPLSNLCELQEPQVILMVENLDSFLALPTWPGVTIAWGAGYRAVDIVRGPYFSNGRLLYWGDLDLDGFKILDGVRSHVPHTESVLMNSETVSRWRYLGVADREFKAESFDNLHDFESDALDLLITDGELRIEQERIRLDVAVEEIEKVIRG
notes: MksG of Corynebacterium glutamicum, gene mksG (cg3103), amplified from genomic DNA and ligated NdeI/BamHI into pET28a (plasmid pMG003); Biotinylated (EZ-Link NHS-PEG4, ratio 3:1) where used as bait in BLI; The methods speak of 'dimeric MksG'; also called cg3103; source: E. coli BL21 (DE3) pLysS, purified (Ni-NTA, SEC)
